± gives the uncertainty stated by the source.
Assay: amyloid nucleation score (Sup35N fusion, yeast selection) (log enrichment); library NNK3; higher = more nucleation; inactive = no reads after selection
Procedure, shortened: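 Sup35N was fused to peptides of 20 random codons and expressed in psi-negative yeast, which were induced with 100 μM copper sulfate for 24 hours and then grown on medium lacking adenine and uracil for 7 days at 30°C. Plasmid inserts from input and output were sequenced on Illumina. The nucleation score is the DiMSum log enrichment of output over input reads, centred on the mode score of non-aggregating sequences. Sequences with under 100 input reads were left out, and random libraries had three technical output replicates.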

Substance	amyloid nucleation score
LARHSCSSNVYGNLQRTFFG	inactive
LASGRHQASVHCRVNSMMYS	inactive
LASSQLIYRTSRTCPTLLPL	1.3 ± 0.1
LAYWPSNGCVP	inactive
LCCTRTSHIMSRVARMAFRV	inactive
LCDGCKNMFLLPLY	inactive
LCFAVSDCFNYKVLPILMGA	inactive
LCFMRHSLRGWG	-0.415 ± 0.96
LCFRLDVSRMCTVSGNIGYC	1.57 ± 0.079
LCGCS	inactive
LCHSSRGDIH	inactive
LCKQTSTTNLSGV	inactive
LCPIAMCCSG	inactive
LCPVMLDRRSARSKGPALIL	inactive
LCRFNLYYWLVFELACSRWN	inactive
LCRLPLDQTSKPIVTTYAGR	inactive
LCRRLQTGMAYHMVSSYFNW	inactive
LCSHLEVDSL	inactive
LCSRRSGMVRIWIVSSARLY	inactive
LCVIWIVSHRRDCMAFCEQQ	inactive
LCVSLNCPQFSFYSLQNQPY	2.71 ± 0.053
LCVVEIFTLIGSCCHSDLGW	0.914 ± 0.13
LCYCLKAVDYRLNFFHKWRH	inactive

Substance	amyloid nucleation score
LDAWRWMSLTADYGKSLVTR	inactive
LDDRQSVCGTAYKVMTDIS	inactive
LDFANCFLVQCL	inactive
LDGGMNNRR	inactive
LDHRGIRFFN	inactive
LDILVRETDQSLWDFQLSSV	0.499 ± 0.13
LDKVSNSCTPIWPFVIET	inactive
LDLNVIDRGWTPGTGTVQRM	inactive
LDNVR	inactive
LDQTSRIVYVFTCSYWLDKV	inactive
LDSADTNDHPFSWYNGMLGT	inactive
LDSGISNHPNFIFTHTEFIN	inactive
LDTVTCNSLETAFGSFKNWL	inactive
LDVGIVYSLVVCRKIRRSL	inactive
LDVIFSKTFMEIVTLVVSLD	inactive
LDVLKMGIVV	inactive
LEAHESIRFCP	inactive
LEEDVHISFHHIFDRFCPTT	inactive
LENNIRSDSTFSTWTHDQCQ	inactive
LERYWCTNRGFNRWMQAYKD	inactive
LFAAYCFVYDIQFTRVPGAW	inactive
LFALSWTS	0.182 ± 0.35
LFARRVGSYCVIVCQPVLWE	inactive

Substance	amyloid nucleation score
LFCGT	inactive
LFDFHSSCKSAVIAYLLSRR	0.138 ± 0.47
LFDRTLL	inactive
LFEVSS	inactive
LFFCHYILY	1.58 ± 0.087
LFFLRRNCHTDVSSLEYDNA	inactive
LFFLTCRCVRNAYHRYMVCI	inactive
LFGFLYFVV	-0.564 ± 0.82
LFGTRIYGLFLCSLNLCRRV	inactive
LFHSAMNGSHFSTVHSNSVI	inactive
LFIMFCFGIRCLEPDIRHCY	inactive
LFKGGDSICYSHWSVRSSRK	1.09 ± 0.12
LFLAKRSLSDTLFQPDPFSR	inactive
LFLDVSIYVCPEGILRKS	2.65 ± 0.084
LFLKSLCCFRICTNFIKVEL	inactive
LFLRPNANRYVH	inactive
LFLRTEKIRFRSTRLVTLSC	inactive
LFLYLCTVYNDFKELQPRNL	2.67 ± 0.07
LFMGCPVEV	-0.515 ± 0.62
LFMTRSFILYFTYPFRYGVV	inactive
LFRLYKYLQCPSQGWCPRH	inactive
LFSEFQ	0.574 ± 0.32
LFSGSHWCRDNMWSSGAIDA	inactive

Substance	amyloid nucleation score
LFSNSLNFLIK	0.679 ± 0.28
LFSWRKYGVNHQLLGVEIQS	inactive
LFVFIYSVSGLLDDGVGLGG	inactive
LFVLSTKSLFP	1.39 ± 0.089
LFYLYF	inactive
LGCRYFHYAILNPHQLDKIG	inactive
LGFMKSFLGYSY	inactive
LGIQYLDETHCPKSTSKGFS	inactive
LGITNGRL	inactive
LGLDTSSSVYCQSCGVRFSV	inactive
LGLMLDILRKQDC	inactive
LGMCSHESYNLHEEICIW	inactive
LGNISCELARIELHAPAIR	inactive
LGNSAKVVLRWVEGVGLGVA	inactive
LGRANIHATIACM	inactive
LGRCDVIVKEFVTIIA	inactive
LGSIRSSKCKNLVICIGPMC	2.41 ± 0.051
LGSVVRRDEGIVGESY	0.078 ± 0.6
LGSWLWR	inactive
LGTWFWVVVG	inactive
LGVCSGH	inactive
LGYMLNGGRMQKNATNKSGA	inactive
LHIGLNS	inactive

Substance	amyloid nucleation score
LHMIVALSSSSSMTYDVRVV	inactive
LHWSIDR	inactive
LHYICQKLGGMWMVLVCRAC	inactive
LHYLLTLARKSEWHYLLDIR	inactive
LIFGVIPCQPR	inactive
LIFWRPIGDEHYLWPLPFYL	inactive
LIGFLNNSVFMSAGY	inactive
LIGQFISYIKSVIGSDRKGC	inactive
LIHICHRVQPHMSCDCVAMW	inactive
LIKCPIRYDDYKRPWLAS	inactive
LILCRCCSGVYRTRVMKLLL	inactive
LIPSKRTSDRLFLGPATLDF	inactive
LIRNEGFCEKS	0.244 ± 0.14
LIRTARSLYWAYVHLAVSWR	inactive
LITCI	inactive
LKAKCVIMSLPLDMGYHGKR	inactive
LKDCTCEFIFMTGKYCIYFR	-0.495 ± 0.76
LKISALTIESMF	inactive
LKLFWSLET	inactive
LKNVTDKMHTYLRLEGSRHV	inactive
LKRSFNDFEFH	inactive
LKRYFI	inactive
LKTNCTPNMLFGFLSEMMRC	inactive

Substance	amyloid nucleation score
LKVFKWKISTLMKAAQPIAS	inactive
LKVPSVVNR	inactive
LKWQVRHLWGNDVVGHRYTH	-0.546 ± 0.6
LKYSDSSDI	0.235 ± 0.26
LLERDYR	inactive
LLFALDGFIAGWMCMWGDRF	inactive
LLFQL	inactive
LLFQSIVVY	inactive
LLFSGHYVGAYLGYVFPICS	inactive
LLGSFEGLIALYSGGWMAYR	-0.108 ± 0.77
LLGYASMASSFIYIQHNVLE	inactive
LLIFMFCLAFVFFFMAKDGN	inactive
LLIIGLKSAVGVW	inactive
LLIRVLYLWSLESISNG	inactive
LLKCYRPFSVFIYFNVLASG	inactive
LLKIFNNEVKITITFCLLYV	inactive
LLKRKLIVAFKKSMLFDFMV	inactive
LLLCS	0.402 ± 0.18
LLLRFFRYLGYKLMRTIE	inactive
LLLTYFMMGYYVVWYVFGYW	inactive
LLNTRGSRVMLLGHRLFDN	inactive
LLNWSYIKRLFLVGIKSGHR	inactive
LLSIRTSSCFCKRGSTKFED	0.176 ± 0.33

Substance	amyloid nucleation score
LLTARTITSCKQWPGTSRYT	inactive
LLTFSMVDKFLSDNSYLNGI	inactive
LLVGEIGYLEHTMHNCEVEG	inactive
LLVLRGYSDVIFKNTLYGNE	inactive
LLVYAVENPGLVWNSRHGLF	-1.37 ± 2.5
LLVYFE	inactive
LLWVQQHWLKNDTLVTYKAK	inactive
LLYMSECNELSIDRLVNLSK	inactive
LLYVICPVRINLRHWRATDS	0.487 ± 0.17
LMFGVIMPITDDMFYGQESV	inactive
LMIWVSDLSE	inactive
LMMLCLSVGMMKRSAYRLFT	inactive
LMQDLENVS	inactive
LMRNRFFNPVSGTFTASIGQ	-0.302 ± 1.1
LMRNSMLKTCFRSTAFH	inactive
LMTNRVVL	inactive
LMVVWMLYGNNTCYDALMLC	inactive
LNCAILASHSHYTK	inactive
LNCVSQMRVDRDANYSCNFF	-0.142 ± 0.78
LNEYNINDFTLFSCTFIGNV	2.73 ± 0.081
LNFGEFILMAGDLLTLMCVF	1.42 ± 0.12
LNFVWNFNWLYWFLYGIERV	inactive

— the supplement of paper PMC12042874
